The values below come from patent US20040132160A1 (University of Texas, published 2004).

The target of test [1] is T1, MURF-1 (Muscle RING Finger 1), native protein without epitope tag (murine, UniProt Q9ERP3 1-366).
T1 construct: 366 amino acid protein, 41 kDa; also called endogenous MURF-1; native MURF-1
T1 sequence: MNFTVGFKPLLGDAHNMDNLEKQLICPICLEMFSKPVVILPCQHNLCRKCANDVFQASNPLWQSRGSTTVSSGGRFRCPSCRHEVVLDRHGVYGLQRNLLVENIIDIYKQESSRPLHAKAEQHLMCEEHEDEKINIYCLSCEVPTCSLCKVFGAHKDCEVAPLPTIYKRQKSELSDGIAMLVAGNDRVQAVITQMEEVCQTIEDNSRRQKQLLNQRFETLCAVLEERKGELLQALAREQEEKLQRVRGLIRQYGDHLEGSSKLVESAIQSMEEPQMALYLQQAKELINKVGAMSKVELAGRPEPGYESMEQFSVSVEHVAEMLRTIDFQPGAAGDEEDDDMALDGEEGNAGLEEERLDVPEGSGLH
The test can be described thus: immunofluorescence in cotransfected Hela cells, legend of FIGS. 6B-D. The source says: (§1) The leucine-rich coiled-coil domain mediates homo-oligomerization of MURF-1. FIGS. 6B-D. MURF-1 binds to microtubules in a homo-oligomeric form. Hela Cells were transfected with Flag-tagged full-length MURF alone (FIG. 6B) or in combination with myc-tagged MURF-1 (FIGS. 6C and 6D) and immunofluorescence performed. Flag-tagged MURF-1 forms aggregates in the cytoplasm of the cell. In the presence of myc-tagged MURF-1, the Flag-tagged MURF-1 and myc-tagged MURF-1 are colocalized in filamentous structures in the cell. Identical results were obtained using native MURF-1 lacking an epitope tag.
For immunofluorescence, cells were extracted with 1% Triton X-100 in PBS for 1 minute, washed twice in PBS, and fixed for 15 minutes in 3.7% formalin in PBS. Cells were then washed three times in PBS and blocked in PBS containing 3% Bovine Serum Albumin and 0.1% NP40 for 30 minutes. All antibodies were incubated in fresh block solution for 60 minutes at ambient temperature. Myc-tagged versions of MURF-1 were detected using antibody 9E10 (Santa Cruz) at a dilution of 1:250. Flag-tagged versions of MURF-1 were detected using the M2 Flag antibody at a dilution of 1:500 (Kodak). Microtubules were detected using alpha-tubulin antibody at a dilution of 1:2000 (Sigma). Intermediate filaments were visualized using vimentin antibody at a dilution of 1:500 (Sigma). […]

Test [2] addresses T2, full-length MURF-1 with C-terminal myc tag (murine, UniProt Q9ERP3 1-366).
T2 construct: Expressed in transfected cells (Hela, Cos, 293T and others) or translated in vitro with 35S-methionine; also called myc-tagged MURF-1; myc-tagged MURF; not shown: C-terminal myc/HIS tag of vector pcDNA3.1 myc/HIS (Invitrogen)
T2 sequence: T1 sequence
The test can be described thus: co-immunoprecipitation of 35S-labeled in vitro translated myc-tagged and Flag-tagged MURF-1 with Flag antibody M2.
Excerpt: as §1, with “FIGS. 6A-6D—Mapping domains of MURF-1 required for homo-oligomerization. FIG. 6A. Various forms of N-terminal Flag-tagged MURF-1 and full-length C-terminal myc-tagged MURF-1 were in vitro translated in the presence of ³⁵S-methionine and immunoprecipitation performed as described in Material and Methods. The” for “The”
In vitro transcription/translation was performed as directed by the manufacturer (Promega). Plasmids used were C-terminally myc-tagged full-length MURF-1 and various Flag-tagged deletions of MURF-1. Immunoprecipitations were performed using ³⁵S-methionine-labelled in vitro translation products. Briefly, ³⁵S-methionine-labelled products were incubated with agitation in 1 ml of immunoprecipitation buffer (PBS, 0.5% Triton X-100, 0.25 mM zinc sulphate) at 4° C. for 2 hours. […]

B1: full-length MURF-1 with N-terminal Flag tag (other)
chain: T1 sequence
notes: Translated in vitro with 35S-methionine for immunoprecipitation, or expressed in Hela cells; also called Flag-tagged MURF-1; Flag-MURF-1; not shown: N-terminal Flag tag (vector pECE-Flag, subcloned into pcDNA3.1)
For B1, the binding result in test [1] and in test [2] was “binds” each time.
